Laboratory results: patent US12365732 (23ANDME, dated 2025)

Columns and labels:
[1] = target: T1, hu-CD96 isoform 1 on HEK293T cells (human, UniProt P40200 22-585); test: FACS, Ab 10 nM
T1 construct: Origene RC213845, transient expression; also called HEK293T-CD96 (iso1)
T1 sequence: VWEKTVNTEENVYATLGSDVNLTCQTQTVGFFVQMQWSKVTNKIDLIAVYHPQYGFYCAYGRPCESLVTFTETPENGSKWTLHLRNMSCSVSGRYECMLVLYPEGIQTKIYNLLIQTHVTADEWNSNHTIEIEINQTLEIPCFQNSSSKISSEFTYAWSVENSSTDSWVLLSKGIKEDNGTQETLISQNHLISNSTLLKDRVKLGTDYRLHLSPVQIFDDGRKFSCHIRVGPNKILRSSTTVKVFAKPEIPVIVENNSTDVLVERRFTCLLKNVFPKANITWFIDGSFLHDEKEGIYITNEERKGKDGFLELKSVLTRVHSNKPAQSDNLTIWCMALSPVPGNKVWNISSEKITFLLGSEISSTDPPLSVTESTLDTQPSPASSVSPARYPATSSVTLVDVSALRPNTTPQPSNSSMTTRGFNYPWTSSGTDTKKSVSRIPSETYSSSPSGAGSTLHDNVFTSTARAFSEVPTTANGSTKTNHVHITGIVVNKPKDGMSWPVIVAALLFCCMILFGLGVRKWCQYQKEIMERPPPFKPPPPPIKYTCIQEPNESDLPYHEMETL
Procedure: Isoform 1 of hu-CD96 (Origene, catalog #RC213845) was transiently expressed in HEK293T cells following standard lipofectamine or Fugene transfection protocol. […] Cells were washed, and binding was detected by incubation with anti-mouse IgG-FITC (Biolegend, catalog #406001) for 20 minutes at 4° C. Cell binding was analyzed by flow cytometry with a CytoFLEX (Beckman Coulter). Binding curves were calculated as a percentage of cells positive for bound antibody.

[2] = target: T2, cy-CD96 (soluble, extracellular domain) (cynomolgus monkey, UniProt P40200 22-516 (human entry), biotinylated in Octet and blocking ELISA); test: phage competition ELISA, soluble CD96 vs coated hu-CD96
T2 construct: the assays name only cy-CD96; also called biotinylated cy-CD96
T2 chain: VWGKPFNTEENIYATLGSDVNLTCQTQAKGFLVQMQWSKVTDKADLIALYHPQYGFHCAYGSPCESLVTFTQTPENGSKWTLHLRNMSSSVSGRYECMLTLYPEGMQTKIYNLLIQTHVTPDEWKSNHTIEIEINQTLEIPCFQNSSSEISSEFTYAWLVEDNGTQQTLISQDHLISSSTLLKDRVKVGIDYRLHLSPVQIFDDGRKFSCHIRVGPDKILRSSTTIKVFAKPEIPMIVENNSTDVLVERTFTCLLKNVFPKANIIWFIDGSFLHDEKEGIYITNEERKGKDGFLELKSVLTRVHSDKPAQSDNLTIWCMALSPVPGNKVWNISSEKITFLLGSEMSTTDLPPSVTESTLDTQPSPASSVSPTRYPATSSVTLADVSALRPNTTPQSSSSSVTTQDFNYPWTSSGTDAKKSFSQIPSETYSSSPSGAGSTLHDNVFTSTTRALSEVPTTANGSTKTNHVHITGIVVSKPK
Procedure: 192 colonies from most stringent selections (biotinylated 0.1 nM of hu-CD96 or cy-CD96 with 1000× non-biotinylated human or cy-CD96) were grown in 400 µL 2YT with 4 µL helper phage M13KO7 overnight at 37° C. with shaking. After spinning down the pellet, the phage supernatant was diluted 1:1 with 2 nM hu-CD96, 20 nM cy-CD96 and ELISA buffer (0.5% BSA and 0.05% TWEEN®20 in PBS) in total […] and incubated for two hours at room temperature with agitation. The […] of mixture was transferred to hu-CD96 coated plate for 15 min to capture unbound phage. The plate was washed with wash buffer (0.05% TWEEN®20 in PBS), and HRP-conjugated anti-M13 antibody (Sino biological, Cat #11973-MM05-H-50) was added in ELISA buffer for 30 min. […] Enzymatic color development was stopped using TMB stop solution (VWR, Cat #95059-200). Plates were analyzed with a SpectraMax i3X plate reader (Molecular Devices). The % inhibition was calculated by the $OD450$ of wells with hu-CD96/cy-CD96 competitor divided by $OD450$ of wells with buffer alone. The lower % inhibition indicated higher phage $IC50$ against hu-CD96 or cy-CD96.
Selected top inhibition % phage variants from single spot competition were purified from culture supernatants. The optimal phage concentration was incubated with serially-diluted hu-CD96 or cy-CD96 in ELISA buffer in NUNC F plate for two hours. The […] of the mixture was transferred to hu-CD96 coated wells for 15 min to capture unbound phage. The plate was washed with wash buffer (0.05% TWEEN®20 in PBS), and HRP-conjugated anti-M13 antibody (Sino biological, Cat #11973-MM05-H-50) was added in ELISA buffer for 30 min. The plates were washed and developed as described above. The absorbance at 450 nm was plotted as a function of antigen concentration in solution to determine phage $IC50$.

[3] = target: T2, cy-CD96 (soluble, extracellular domain); test: BLI (Octet), biotin-CD96 on SA, Fab analyte
Procedure: The binding affinity of the generated Fab variants of mAb1.v7 for hu-CD96 and cy-CD96 was determined by OCTET (Pall ForteBio) Bio-Layer Interferometry (BLI) binding analysis. The biotinylated hu-CD96 or biotinylated cy-CD96 was diluted to a final concentration 10 µg/mL in experimental buffer (PBS buffer with 0.01% Tween-20) and immobilized on the Streptavidin Capture (SA) biosensors (Pall ForteBio). Three-fold serial dilutions of the mAb1.v7 Fab variants starting at 1 µM as analytes were diluted in the experimental buffer (PBS buffer with 0.01% Tween-20). The biosensors were equilibrated in experimental buffer at 30° C. for ten minutes prior to starting the experiment. The kinetics experiment was performed with the following steps, where the step name, solution and time are listed: Baseline (buffer—60 seconds), Loading (biotinylated antigen—200 seconds), Baseline 2 (buffer—minimum 120 seconds), Association (analyte—200-300 seconds) and Dissociation (buffer—1000 seconds). The resulting BLI signal from analyte association and dissociation from the […] was analyzed using the Octet Data Analysis software (Pall ForteBio). First a reference subtraction was performed on all recorded traces using the reference well (biosensor that underwent same steps as experimental wells but no analyte for the Association step) and then all the traces were aligned to the beginning of the Association step. The entirety of the Association and Dissociation steps were used in a Global fit (minimum of four analyte concentration traces) in a 1:1 binding model to calculate the K_D values for the 16 selected individual mAb1.v7 Fab variants as summarized in Table 9 (below).

| Binder | % positive [1] [%] | IC50 [2] [nM] | Kd [3] [nM] |
| --- | --- | --- | --- |
| 10G1 (clone 10G1.3G8), purified hybridoma antibody (antibody, V domains shown, murine hybridoma IgG) VH: QIQLVQSGPELKKPGETVKISCKASGYPFTTYGMSWVKQAPGKGLKWMGWINTDSGVPTYADDFKGRFAFSLETSANTAYLQINSLKNEDAATYFCARNIYYGWGNFDYWGQGTILTVSS VL: DILMTQSPTTLSVTPGETVSLSCRASQDIYRNLHWYQQKSQGTPRLLIKHASDSISGIPSRFTGSGSGTDFTLSINSVKPEDEGIYYCLQGYSMPYTFGGGTKLEIK | 53.4 |  |  |
| mAb1.v7.2 Fab (Fab, V domains shown, also called M34R/P52aF/T97V) VH: EVQLVQSGAEVKKPGASVKVSCKASGFTFTNNWRHWVRQAPGQGLEWIGMIHFNSGITNINEKFKNRVTMTTDTSTSTAYMELRSLRSEDTAVYYCRSDGVYEGYFDYWGQGTLVTVSS VL: DIQLTQSPSSLSASVGDRVTITCKASQNVGTAIVWYQQKPGKAPKVLIYSASTRYTGVPSRFSGSGSGTDFTLTISSLQPEDFATYYCQQYSSSPLTFGQGTKVEIK |  | 1.8 | 39.1 |
| mAb1.v7.9 Fab (Fab, V domains shown, also called M34R/P52aM/T97V) VH: EVQLVQSGAEVKKPGASVKVSCKASGFTFTNNWRHWVRQAPGQGLEWIGMIHMNSGITNINEKFKNRVTMTTDTSTSTAYMELRSLRSEDTAVYYCRSDGVYEGYFDYWGQGTLVTVSS VL: DIQLTQSPSSLSASVGDRVTITCKASQNVGTAIVWYQQKPGKAPKVLIYSASTRYTGVPSRFSGSGSGTDFTLTISSLQPEDFATYYCQQYSSSPLTFGQGTKVEIK |  | 0.37 | 129 |
| mAb1.v7.16 Fab (Fab, V domains shown, also called M34R/T97V) VH: EVQLVQSGAEVKKPGASVKVSCKASGFTFTNNWRHWVRQAPGQGLEWIGMIHPNSGITNINEKFKNRVTMTTDTSTSTAYMELRSLRSEDTAVYYCRSDGVYEGYFDYWGQGTLVTVSS VL: DIQLTQSPSSLSASVGDRVTITCKASQNVGTAIVWYQQKPGKAPKVLIYSASTRYTGVPSRFSGSGSGTDFTLTISSLQPEDFATYYCQQYSSSPLTFGQGTKVEIK |  | 1.6 | 97.9 |
| mAb1.v7.48 Fab (Fab, V domains shown, also called N32R/P52aH/T97V) VH: EVQLVQSGAEVKKPGASVKVSCKASGFTFTNRWMHWVRQAPGQGLEWIGMIHHNSGITNINEKFKNRVTMTTDTSTSTAYMELRSLRSEDTAVYYCRSDGVYEGYFDYWGQGTLVTVSS VL: DIQLTQSPSSLSASVGDRVTITCKASQNVGTAIVWYQQKPGKAPKVLIYSASTRYTGVPSRFSGSGSGTDFTLTISSLQPEDFATYYCQQYSSSPLTFGQGTKVEIK |  | 0.3 | 68 |
| mAb1.v7.70 Fab (Fab, V domains shown, also called N32R/P52aA/T97V) VH: EVQLVQSGAEVKKPGASVKVSCKASGFTFTNRWMHWVRQAPGQGLEWIGMIHANSGITNINEKFKNRVTMTTDTSTSTAYMELRSLRSEDTAVYYCRSDGVYEGYFDYWGQGTLVTVSS VL: DIQLTQSPSSLSASVGDRVTITCKASQNVGTAIVWYQQKPGKAPKVLIYSASTRYTGVPSRFSGSGSGTDFTLTISSLQPEDFATYYCQQYSSSPLTFGQGTKVEIK |  | 0.4 | 52.6 |
| 9H4, purified hybridoma antibody (antibody, V domains shown, murine hybridoma IgG) VH: EVQLLETGGGLVKSGGSLKLSCAASGFTFSDYYMYWVRQTPEKRLEWVAAISDDGTYTYYPDSVKGRFTISRDNANNYLYLQMSSLKSEDTAIYYCAKAGSYDYFDVWGAGTTVTVSS VL: DIVLTQSPASLAVSLGQRAIISCKASQSVTFADTGLMHWYQQKPGQQPKLLIYRASNLEVGVPTRFSGSGSGTDFTLNIHPVEEEDVATYYCQQSREYPWTFGGGTKLEIK | 48.4 |  |  |
| 7E5, purified hybridoma antibody (antibody, V domains shown, murine hybridoma IgG) VH: QVQLKESGPGLVAPSQSLSIICTVSGFSLTNYGIHWIRQPPGKGLEWLGIIWAGGSTNYNSALMSRLTISKDNSKSQVFLKMNSLQTNDTAIYYCARVSMMGFAYWGQGTLVTVSA VL: QAVVTQESALTTSPGETVTLTCRSSTGAVTTSNYANWVQEKPDHLFTGLIGGTNNRAPGVPARFSGSLIGDKAALTITGAQTEDEAIYFCSLWYGSHWVFGGGTKLTVL | 47.4 |  |  |
| mAb1.v7 IgG (humanized 12F8) (antibody, V domains shown, human IgG1 N297G) VH: EVQLVQSGAEVKKPGASVKVSCKASGFTFTNNWMHWVRQAPGQGLEWIGMIHPNSGITNINEKFKNRVTMTTDTSTSTAYMELRSLRSEDTAVYYCRSDGTYEGYFDYWGQGTLVTVSS VL: DIQLTQSPSSLSASVGDRVTITCKASQNVGTAIVWYQQKPGKAPKVLIYSASTRYTGVPSRFSGSGSGTDFTLTISSLQPEDFATYYCQQYSSSPLTFGQGTKVEIKG | 48.8 |  |  |
